Reference: patent US20260151496A1 (FUDAN UNIVERSITY, published 2026)

B1: HER2 VHH-FC1 fusion protein 1-C09 (Fc fusion)
chain: DVQLVESGGGLVQPGGSLRLSCEASGLTFRRYHFSWYRQPPGKERELVAVISDTGSTTNYTDSVKGRFTISRDLARNTVFLQLNSLKPDDTAVYYCNAKWPIIAADWWGQGTQVTVSSEPKSSDKTHTCPPCPAPEFEGGPSVFLFPPKPKDTLMISRTPEVTCVVVDVSHEDPEVKFNWYVDGVEVHNAKTKPREEQYNSTYRVVSVLTVLHQDWLNGKEYKCKVSNKALPASIEKTISKAKGQPREPQVYTLPPSRDELTKNQVSLTCLVKGFYPSDIAVEWESNGQPENNYKTTPPVLDSDGSFFLYSKLTVDKSRWQQGNVFSCSVMHEALHNHYTQKSLSLSPGK
notes: 25; also called 1-C09-FC1; 1-C9-FC1
B2: HER2 VHH-FC1 fusion protein 1-B05 (Fc fusion)
chain: AVQLVESGGGPGGSLRLSCAASGITFFRHTLGWYRQAPGKQRELVASITGGESTNYADSVKSRFTISRDNAKNMVFLQMNSLKPEDTALYYCNSKWDAAGVEFWGKGTLVTVSSEPKSSDKTHTCPPCPAPEFEGGPSVFLFPPKPKDTLMISRTPEVTCVVVDVSHEDPEVKFNWYVDGVEVHNAKTKPREEQYNSTYRVVSVLTVLHQDWLNGKEYKCKVSNKALPASIEKTISKAKGQPREPQVYTLPPSRDELTKNQVSLTCLVKGFYPSDIAVEWESNGQPENNYKTTPPVLDSDGSFFLYSKLTVDKSRWQQGNVFSCSVMHEALHNHYTQKSLSLSPGK
notes: 25; also called 1-B05-FC1; chimeric nanobody 1-B05
B3: HER2 VHH-FC1 fusion protein 2-F03 (Fc fusion)
chain: EVQLVESGGGLVQPGGSLRLSCAASGLTFRRYHMSWYRQAPGKERELVAVISDTGTTNYAESVKGRFTISRDNSRSTVFLQLNSLKPDDTAVYYCNGRWPAVAADWWGQGTQVTVSSEPKSSDKTHTCPPCPAPEFEGGPSVFLFPPKPKDTLMISRTPEVTCVVVDVSHEDPEVKFNWYVDGVEVHNAKTKPREEQYNSTYRVVSVLTVLHQDWLNGKEYKCKVSNKALPASIEKTISKAKGQPREPQVYTLPPSRDELTKNQVSLTCLVKGFYPSDIAVEWESNGQPENNYKTTPPVLDSDGSFFLYSKLTVDKSRWQQGNVFSCSVMHEALHNHYTQKSLSLSPGK
notes: 25; also called 2-F03-FC1; chimeric nanobody 2-F03
B4: HER2 VHH-FC1 fusion protein 2-C07 (Fc fusion)
chain: AVQLVESGGGLVQPGGSLRLSCAASGLTFMRYDINWYRQAPGKERELVAALDSSSGRTNYADFTEGRFTISRNNAKNSAYLQMNNLKPEDTASYYCNAQWKRIGADYWGQGTQVTVFSEPKSSDKTHTCPPCPAPEFEGGPSVFLFPPKPKDTLMISRTPEVTCVVVDVSHEDPEVKFNWYVDGVEVHNAKTKPREEQYNSTYRVVSVLTVLHQDWLNGKEYKCKVSNKALPASIEKTISKAKGQPREPQVYTLPPSRDELTKNQVSLTCLVKGFYPSDIAVEWESNGQPENNYKTTPPVLDSDGSFFLYSKLTVDKSRWQQGNVFSCSVMHEALHNHYTQKSLSLSPGK
notes: 25; also called 2-C07-FC1; chimeric nanobody 2-C07
B5: HER2 VHH-FC1 fusion protein 1-C10 (Fc fusion)
chain: QVQLVESGGDLVQPGGSLRLSCATSGLTFRRYELKWYRQAPGKERELVAGITPASGSRNYADSVKGRFTISRDDAKMTVYLQMNSLEPEDTAVYYCNAYWMIPQHIENNYWGKGTLVTVSSEPKSSDKTHTCPPCPAPEFEGGPSVFLFPPKPKDTLMISRTPEVTCVVVDVSHEDPEVKFNWYVDGVEVHNAKTKPREEQYNSTYRVVSVLTVLHQDWLNGKEYKCKVSNKALPASIEKTISKAKGQPREPQVYTLPPSRDELTKNQVSLTCLVKGFYPSDIAVEWESNGQPENNYKTTPPVLDSDGSFFLYSKLTVDKSRWQQGNVFSCSVMHEALHNHYTQKSLSLSPGK
notes: 25; also called 1-C10-FC1; chimeric nanobody 1-C10
B6: HER2 VHH-FC1 fusion protein 1-G07 (Fc fusion)
chain: QVQLVESGGGKAQPGGSLRLSCVASRITFRHYDLSWYRQAPGQERELVATVTNGGVITYADSVKGRFTISRDNAKNTVQLQMNNLKPEDTAVYYCNAVWVYLQRLTQNKKENDYWGPGTQVTVSSEPKSSDKTHTCPPCPAPEFEGGPSVFLFPPKPKDTLMISRTPEVTCVVVDVSHEDPEVKFNWYVDGVEVHNAKTKPREEQYNSTYRVVSVLTVLHQDWLNGKEYKCKVSNKALPASIEKTISKAKGQPREPQVYTLPPSRDELTKNQVSLTCLVKGFYPSDIAVEWESNGQPENNYKTTPPVLDSDGSFFLYSKLTVDKSRWQQGNVFSCSVMHEALHNHYTQKSLSLSPGK
notes: 25; also called 1-G07-FC1; chimeric nanobody 1-G07

target: T1, HER2 receptor on the surface of NCI-N87 cells (human, UniProt P04626 23-1255); assay: flow cytometry on NCI-N87 cells, PE-labelled secondary antibody
T1 construct: whole, on cells; also called HER2 on tumor cell surface
Experimental: (§1) HER2 overexpressing gastric cancer cell line NCI-N87 was used as the target cell. 100 μL of the test antibody diluted in a 10 folds gradient was used as the primary antibody. It was mixed with 1×10⁵ tumor cells suspended in 100 μL RPMI-1640 serum-free medium at final concentrations of 10 μg/mL, 1 μg/mL, and 0.1 μg/mL. The cells were then incubated at 4° C. for 1 hour, washed twice with PBS to remove unbound primary antibodies, and incubated with 200 μL, 2 μg/mL, PE labeled secondary antibodies at 4° C. for 30 minutes. The cells were washed twice with PBS to remove unbound secondary antibodies. Finally, the cells were resuspended in 200 μL PBS and analyzed by flow cytometry to determine the binding affinity of the test antibody to HER2 on the corresponding cell surface.

Row | Binder | EC50 [µg/mL]
1 | B1 | 0.109
2 | B2 | 0.144
3 | B3 | 0.13
4 | B4 | 0.131
5 | B5 | 0.209
6 | B6 | 0.199

target: T1, HER2 receptor on the surface of NCI-N87 …; assay: as above; remark: another data set of the same source
Experimental: as §1

Row | Binder | EC50 [nM] | Max MFI
7 | B1 | 1.39 | 269000
8 | B2 | 1.86 | 245000
9 | B3 | 1.67 | 234000
10 | B4 | 1.68 | 241000
11 | B5 | 2.64 | 240000
12 | B6 | 2.48 | 250000

target: T2, human HER2 His6 protein, extracellular domain (NCBI NP_004439.2, Met 1-Thr 652), C-terminal polyhistidine tag (human, UniProt P04626 23-652); assay: ELISA, HER2 protein coated at 1 µg/mL, detection with HRP-labelled protein A
T2 construct: range 1-652; The stated range includes Met 1; also called HER2-ECD; human HER2-ECD
Experimental: (§2) HER2 protein was diluted to 1 μg/mL with coating solution, coated onto ELISA plate, 100 μL/well, 4° C., overnight. The excess antigens were washed off. The plate was blocked with 1% BSA at room temperature for 2 hours, then 5-fold gradient diluted monoclonal antibodies were added at 100 μL/well, and the plate was incubated at room temperature for 1 hour; the unbound antibodies were washed off, and suitable concentration of horseradish peroxidase labeled Staphylococcus protein A was added at 100 μL/well, and the plate was incubated at room temperature for 0.5 hours. The unbound secondary antibody was washed off. TMB colorimetric solution was added and reacted for about 15 minutes. 1M HCl at 50 μL/well was added to terminate the colorimetric reaction, then the absorbance was measured at 450 nm and the data was analyzed.

Row | Binder | EC50 [µg/mL]
13 | B1 | 0.01
14 | B2 | 0.005
15 | B3 | 0.004
16 | B4 | 0.005
17 | B5 | 0.017
18 | B6 | 0.01

target: T2, human HER2 His6 protein, extracellular …; assay: ELISA, HER2 protein coated at 1 µg/mL, detection with HRP-labelled protein A, OD 450 nm
Experimental: as §2

Row | Binder | EC50 [nM]
19 | B1 | 0.125
20 | B2 | 0.069
21 | B3 | 0.05
22 | B4 | 0.07
23 | B5 | 0.22
24 | B6 | 0.128

target: T2, human HER2 His6 protein, extracellular …; assay: called SPR, run on ForteBio OCTET R2; antibody captured on Protein A sensor, HER2 protein at 500-31.3 nM as analyte, 25 °C
Experimental: (§3) […] detection was performed and Protein A sensor was used to solidify the antibody at a curing height of approximately […]. […] Affinity detection: equilibrium for 60 seconds, binding for 180 seconds, dissociation for 180 seconds, detection at 25° C., and kinetic characterization analysis was performed using the ForteBio OCTET R2 system.

Row | Binder | Kd [nM]
25 | B1 | 12.1
26 | B2 | 8.9
27 | B3 | 23.2
28 | B4 | 7.42
29 | B5 | 4.61

target: T2, human HER2 His6 protein, extracellular …; assay: ForteBio OCTET R2, antibody captured on Protein A sensor, HER2 protein in solution, 25 °C
Experimental: as §3

Row | Binder | koff [s⁻¹] | kon [M⁻¹ s⁻¹]
30 | B1 | 0.0118 | 974000
31 | B2 | 0.0108 | 1.22e+06
32 | B3 | 0.0108 | 466000
33 | B4 | 0.00251 | 338000
34 | B5 | 0.001 | 217000
